From patent publication US20230331828A1 (published 2023) come the findings set out here.

As usually defined, the koff is a measure of how fast the partners let go of each other. Low readings indicate a long-lived complex, high ones a short-lived complex. In general, kon refers to the rate constant with which the complex forms. Higher therefore signals fast association.

In assay [1] the target is T1, Aβ1-42 fibrils (human).
T1 construct: Aβ1-42 polypeptide, HFIP-treated, incubated in 10 mM HCl at 37 C for 24 h, pelleted fibrillar fraction, sonicated; Multimeric fibril; also called fibril Aβ42; fibrillar Aβ42
T1 sequence (peptide, as listed by the source): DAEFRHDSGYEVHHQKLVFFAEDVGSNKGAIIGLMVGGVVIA
As to the kind of experiment: SPR (BIAcore T200); Aβ1-42 fibrils immobilized, Fab as analyte; global 1:1 fit; apparent KD. As to the method: (§1) Fibrils were immobilized on sensor chip CMS (GE Healthcare Life Sciences) via amine coupling to a level to ensure a maximum binding of analyte of approximately 100 RU. Various concentrations of antibodies or Fabs (ranging from 1 nM to 100 nM) were passed over the coupled ligand at 30 μL/min in running buffer (HBS+0.05% P-20, 1 mg/mL BSA) for 300 s association time and 1200 s dissociation time. Regeneration of the chip surface was accomplished by 2 short injections of 10 mM Glycine-HCl at pH 1.7. Data was blank-subtracted to both a sensor not containing ligand and 0 nM analyte concentration. Analysis was performed using a global 1:1 fit with BIAcore Insight Evaluation software (v2.0) with bulk refractive index set to zero RU.
For orientation: In SPR one partner is held on a chip, and binding of the other changes the refractive index at the surface.

In assay [2] the target is T1, Aβ1-42 fibrils. As to the kind of experiment: SPR (BIAcore T200); Aβ1-42 fibrils immobilized, Fab as analyte; global 1:1 fit. The procedure:
as §1

Assay [3] has as its target T2, Aβ pathology (plaques) in human AD brain tissue (human, UniProt P05067 672-713).
T2 construct: Native tissue deposits, heterogeneous; also called tissue Aβ pathology; Aβ plaques
The assay is described as follows: IHC on frozen human AD brain sections, brain AD 14-11; % stained area against antibody concentration (0.03-9 µg/ml). The procedure: (§2) Tissue Sectioning and Fixation. The unfixed frozen brain tissue samples were embedded in Tissue-Tek OCT (Sakura Finetek) in cryomolds dipped in a mixture of 2-methylbutane and dry ice slurry (−60° C.) then stored at −80° C. until sectioning. Serial 10 μm thick cryosections were generated using a Leica 3050S cryostat. The sections were directly thaw-mounted on positively charged glass slides and were stored at −20° C. until use. Prior to immunohistochemistry IHC procedures, the slides were immersed in 10% neutral buffered formalin solution for 10 minutes at 4° C., rinsed in PBS, then incubated for an hour at 37° C. in a glucose oxidase solution (20 mM beta D(+) glucose, 2 mM sodium azide, and 2 units/mL glucose oxidase in 1×PBS). The slides were rinsed 3 times for 5 minutes in PBS before they were transferred onto staining racks for processing in an automated stainer.
(§3) Antibody biotinylation. The humanized IgG antibodies were biotinylated using a non-covalent method, by means of incubation with a biotin-conjugated goat anti-human monovalent fab fragment (Jackson ImmunoResearch) in a ratio of 1:4, for 1 hour at room temperature. Unbound excess Fab was absorbed by pre-incubation with human serum for an additional hour before use. The freshly prepared antibodies were then loaded into the stainer for immediate application to tissue sections.
(§4) Immunostaining. The staining was performed in an automated Leica Bond Rx Stainer (Leica Biosystems), using the Bond Research Kit (DS980, Leica Biosystems) and the avidin-biotin amplified immuno-peroxidase detection system. Each biotinylated anti-Aβ antibody, or a human IgG control, was applied to the sections, at specified concentrations, for one hour and the staining was visualized using the avidin-biotin amplification system (ABC Elite Standard, PK-6100; Vector Laboratories). Hematoxylin counter-staining of nuclei was subsequently applied to sections before dehydration in an ascending series of alcohols, clearing in xylene, cover-slipping, and air-drying.

Assay [4] has as its target T1, Aβ1-42 fibrils. As to the kind of experiment: SPR (BIAcore T200); Aβ1-42 fibrils immobilized, antibody as analyte; global 1:1 fit; apparent KD (avidity). As to the method: (§5) Fibrils were immobilized on sensor chip CMS (GE Healthcare Life Sciences) via amine coupling to a level to ensure a maximum binding of analyte of approximately 50 RU. […] Regeneration of the chip surface was accomplished by 2 short injections of 10 mM Glycine-HCl pH 1.7. Data was blank subtracted to both a sensor not containing ligand and 0 nM analyte concentration. Analysis was performed using a global 1:1 fit with BIAcore Insight Evaluation software (v2.0) with bulk refractive index set to zero RU.

In assay [5] the target is T3, Aβ1-28 (human).
T3 construct: Bought peptide (Bachem); also called Aß1-28 monomer; A131-28
T3 sequence (peptide, as listed by the source): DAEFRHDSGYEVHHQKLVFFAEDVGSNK
The assay is described as follows: SPR (Biacore T200); antibody captured by anti-human Fc, Aβ1-28 as analyte; global 1:1 fit; apparent KD. The procedure:
(§6) Determination of binding affinity of anti-Aß candidates to Aß₁₋₂₈ (Bachem, Torrance, CA) was performed using a Biacore T200. Anti-human Fc antibody was immobilized to a CM3 sensor chip (GE Healthcare Life Sciences) via amine coupling and used to capture Aß antibodies.
(§7) Various concentrations of Aß₁₋₂₈ (analyte, ranging from concentrations of 100 nM down to 0.39 nM, serial diluted 2-fold each dilution step) were passed over the captured ligand at 50 μl/min in running buffer (HBS+0.05% P-20, 1 mg/mL BSA) for 240 s association time and 900 s dissociation time. Data were blank subtracted to both an irrelevant sensor not containing ligand, and buffer runs containing 0 nM analyte concentration. Analysis was performed using a global 1:1 fit with Biacore Evaluation software (v3.0).

In assay [6] the target is T2, Aβ pathology (plaques) in human AD …. As to the kind of experiment: IHC on frozen human AD brain sections, brain AD 15-19; % stained area against antibody concentration (0.03-9 µg/ml). As to the method:
as §2, §3, §4

Assay [7] has the same target. The assay is described as follows: IHC on frozen human AD brain sections, brain AD 13-75; % stained area against antibody concentration (0.03-9 µg/ml). The procedure: as §2, §3, §4
Assay [8] has as its target T1, Aβ1-42 fibrils. The assay is described as follows: SPR (BIAcore T200); Aβ1-42 fibrils immobilized, antibody as analyte; global 1:1 fit. As to the method:
as §5

For assay [9], the target named is T2, Aβ pathology (plaques) in human AD …. As to the kind of experiment: IHC on frozen human AD brain sections, brain AD 11-97; % stained area against antibody concentration (0.03-9 µg/ml). The procedure:
as §2, §3, §4

For assay [10], the target named is T1, Aβ1-42 fibrils. The assay is described as follows: competition ELISA; plate coated with fibril Aβ42; competitor hBP-biotin; IC50 of test divided by IC50 of hBP. The procedure:
To generate fibrils, Aβ 1-42 polypeptides, previously treated with HFIP (hexafluoroisopropanol) and dried, were resuspended in DMSO to 5 mM, then further diluted to 100 uM with 10 mM HCl. Samples were incubated at 37° C. for 24 h, and then centrifuged to separate soluble and fibrillar species. The pellet was the resuspended in 1×D-PBS to the original volume and sonicated before use.
Plates were coated with 0.5 mg/ml of fibril Aβ 42 and blocked, e.g., with 1% BSA/PBS. […] 100 ul of GE Streptavidin HRP diluted 1/10,000 was then added and incubated for 30 minutes. Plates were then washed 6× with TTBS. Thermo Fisher o-phenylenediamine dihydrochloride (OPD) substrate was prepared fresh per manufacturers direction, and 100 ul per well was added. The reaction was incubated for 15 minutes and the reaction stopped with 50 ul 2N H₂SO₄.
(In general: An ELISA detects its analyte on a solid surface through an enzyme-linked reagent.)

Assay [11] deals with T3, Aβ1-28. As to the kind of experiment: SPR (Biacore T200); antibody captured by anti-human Fc, Aβ1-28 as analyte; global 1:1 fit. As to the method: as §6, §7

B1: bapineuzumab Fab (Fab, V domains shown)
VH: EVQLLESGGGLVQPGGSLRLSCAASGFTFSNYGMSWVRQAPGKGLEWVASIRSGGGRTYYSDNVKGRFTISRDNSKNTLYLQMNSLRAEDTAVYYCVRYDHYSGSSDYWGQGTLVTVSS
VL: DVVMTQSPLSLPVTPGEPASISCKSSQSLLDSDGKTYLNWLLQKPGQSPQRLIYLVSKLDSGVPDRFSGSGSGTDFTLKISRVEAEDVGVYYCWQGTHFPRTFGQGTKVEIK
notes: also called hBP
Turning to B1, the Kd in [1] stood at 5.34 nM.

B2: h2731 Fab (Fab, V domains shown)
VH: EVQLLESGGGLVQPGGSLRLSCAASGFTFSNYGMSWVRQAPGKGLEWVASIRSGSGRTYYSDNVKGRFTISRDNSKNTLYLQMNSLRAEDTAVYYCVRYDHYSGSSDYWGQGTLVTVSS
VL: DVVMTQSPLSLPVTLGEPASISCKSSQSLLDYDGKTYLNWLLQKPGQSPQRLIYRVTNRDTGVPDRFSGSGSGTDFTLKISRVEAEDVGVYYCWQGTHFPRSFGQGTKVEIK
For B2, the Kd in assay [1] is 2.24 nM. In [2], the off-rate (koff) was 0.000289 s⁻¹ and the on-rate constant (kon) was 129000 M⁻¹ s⁻¹.

B3: h2726 (antibody, V domains shown)
VH: EVQLLESGGGLVQPGGSLRLSCAASGFTFSNYGMSWVRQAPGKGLEWVASIRSGSGRTYYSDNVKGRFTISRDNSKNTLYLQMNSLRAEDTAVYYCVRYDHYSGSSDYWGQGTLVTVSS
VL: DVVMTQSPLSLPVTPGEPASISCKSSQSLLDYDGKTYLNWLLQKPGQSPQRLIYKVSNRDSGVPDRFSGSGSGTDFTLKISRVEAEDVGVYYCWQGTHFPRTFGQGTKVEIK
notes: Humanized IgG mAb; Only the variable domains are tied to the construct; also called PB-0573
On to B3, for which the “Area Under Curve” value in assay [3] turned out to be 149; in assay [6], 52.1; in assay [7], 149; in assay [9] it was 50.2. For the same molecule, the values for the Kd in assay [4] and in [5] were 0.054 nM and 6.01 nM, respectively. The koff in assay [8] came to 2.12e-05 s⁻¹; in assay [11], 0.000555 s⁻¹. Besides, the kon in assay [8] was 393000 M⁻¹ s⁻¹; in assay [11] it was 92300 M⁻¹ s⁻¹. Further, the “IC50 ratio (test:hBP)” value in assay [10] amounted to 0.68 ratio.

B4: h2831 (antibody, V domains shown)
VH: EVQLLESGGGLVQPGGSLRLSCAASGFTFSNFGMSWVRQAPGKGLEWVASVRSGSGRTYYSDNVKGRFTISRDNSKNTLYLQMNSLRAEDTAVYYCVRYDHYSGTSDYWGQGTLVTVSS
VL: DVVMTQSPLSLPVTLGEPASISCKSSQSLLDYDGKTYLNWLLQKPGQSPQRLIYRVTNRDTGVPDRFSGSGSGTDFTLKISRVEAEDVGVYYCWQGTHFPRSFGQGTKVEIK
notes: Humanized IgG mAb; also called PB-0575
On to B4, for which the “Area Under Curve” value in assay [3] was found to be 149; in [6], 49.7; in assay [7] it was 139; in [9], 49.2. Besides, the Kd turned out to be 0.111 nM in [4] and 6.95 nM in assay [5]. Besides, the koff in [8] was 2.94e-05 s⁻¹; in assay [11] it was 0.000508 s⁻¹. Moreover, the association rate constant (kon) came out at 265000 M⁻¹ s⁻¹ in assay [8] and 73100 M⁻¹ s⁻¹ in [11]. In assay [10], the “IC50 ratio (test:hBP)” value was 0.77 ratio.

B5: h2931 Fab (Fab, V domains shown)
VH: EVQLLESGGGLVQPGGSLRLSCAASGFTFSNFGMSWVRQAPGKGLEWVASVRSGSGRTYYSDNVKGRFTISRDNSKNTLYLQMNSLRAEDTAVYYCVRYDHYTGTSDYWGQGTLVTVSS
VL: DVVMTQSPLSLPVTLGEPASISCKSSQSLLDYDGKTYLNWLLQKPGQSPQRLIYRVTNRDTGVPDRFSGSGSGTDFTLKISRVEAEDVGVYYCWQGTHFPRSFGQGTKVEIK
B5: the Kd in assay [1] turned out to be 1.62 nM. Besides, in assay [2], the koff was 0.000199 s⁻¹ and the kon was 123000 M⁻¹ s⁻¹.

B6: h2831 Fab (Fab, V domains shown)
VH: EVQLLESGGGLVQPGGSLRLSCAASGFTFSNFGMSWVRQAPGKGLEWVASVRSGSGRTYYSDNVKGRFTISRDNSKNTLYLQMNSLRAEDTAVYYCVRYDHYSGTSDYWGQGTLVTVSS
VL: DVVMTQSPLSLPVTLGEPASISCKSSQSLLDYDGKTYLNWLLQKPGQSPQRLIYRVTNRDTGVPDRFSGSGSGTDFTLKISRVEAEDVGVYYCWQGTHFPRSFGQGTKVEIK
On to B6, for which the Kd in assay [1] was determined as 2.31 nM. In assay [2], this molecule showed a koff of 0.000248 s⁻¹ and a kon of 108000 M⁻¹ s⁻¹.

B7: h2726 Fab (Fab, V domains shown)
VH: EVQLLESGGGLVQPGGSLRLSCAASGFTFSNYGMSWVRQAPGKGLEWVASIRSGSGRTYYSDNVKGRFTISRDNSKNTLYLQMNSLRAEDTAVYYCVRYDHYSGSSDYWGQGTLVTVSS
VL: DVVMTQSPLSLPVTPGEPASISCKSSQSLLDYDGKTYLNWLLQKPGQSPQRLIYKVSNRDSGVPDRFSGSGSGTDFTLKISRVEAEDVGVYYCWQGTHFPRTFGQGTKVEIK
In the case of B7, the Kd in [1] stood at 2.01 nM. For the same molecule, in assay [2], the koff stood at 0.000259 s⁻¹ and the kon is 129000 M⁻¹ s⁻¹.
